Earlier results, collected in article PMC9811451.
pKd: −log10 of the molar value.

Molecular target: ACE2 (Homo sapiens) (UniProt Q9BYF1)
Sequence (Q9BYF1 18-740): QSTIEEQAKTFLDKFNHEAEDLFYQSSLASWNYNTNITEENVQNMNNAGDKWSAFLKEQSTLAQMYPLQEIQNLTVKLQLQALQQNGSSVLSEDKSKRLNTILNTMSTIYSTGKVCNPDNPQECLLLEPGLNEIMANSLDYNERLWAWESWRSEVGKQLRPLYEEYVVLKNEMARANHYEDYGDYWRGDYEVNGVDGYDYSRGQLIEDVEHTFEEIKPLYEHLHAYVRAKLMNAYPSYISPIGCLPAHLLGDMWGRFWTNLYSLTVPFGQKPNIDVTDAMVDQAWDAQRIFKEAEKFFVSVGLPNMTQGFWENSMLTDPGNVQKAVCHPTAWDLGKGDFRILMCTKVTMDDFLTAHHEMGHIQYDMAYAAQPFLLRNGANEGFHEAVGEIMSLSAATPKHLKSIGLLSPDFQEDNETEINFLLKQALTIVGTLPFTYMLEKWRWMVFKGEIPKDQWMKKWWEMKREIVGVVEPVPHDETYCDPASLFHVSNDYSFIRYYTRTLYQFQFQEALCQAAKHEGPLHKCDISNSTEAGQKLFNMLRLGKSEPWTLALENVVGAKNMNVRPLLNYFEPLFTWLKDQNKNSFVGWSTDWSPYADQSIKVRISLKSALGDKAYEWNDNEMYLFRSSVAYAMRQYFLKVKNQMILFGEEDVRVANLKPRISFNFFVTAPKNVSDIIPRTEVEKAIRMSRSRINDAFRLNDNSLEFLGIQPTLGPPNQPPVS

Spike (from UniProt P0DTC2)
pKd: 8.40
